Data on one molecule can be found in PMC8860611.

In the data set the target is native CA lattice tubes (HIV-1, UniProt P12493 133-363). The experiment in a line: filter binding.

B1: CA15-2 (1-104) (structured_RNA)
RNA: GGAAGAAGAGAAUCAUACACAAGAUCGACGUACCUCAGGGUGGUGUAUGACUGAGGUGAAGACUGUGAACCAUGGCAUGCGGGCAUAAGGUAGGUAAGUCCAUA
In the case of B1, the binding result is given as “binds”.
